Data reported in patent US7097982 (IMMUNOGEN, dated 2006).

Experiments:
[1] = biological target: GST alone (purified, bacterially expressed) (UniProt P08515 1-218 = GST); experiment: GST pull-down on glutathione-agarose, autoradiography
[2] = biological target: GST-PEM bacterially-expressed fusion protein (Bak residues 58-103 fused to GST) (UniProt P08515 1-218 = GST; Q16611 58-103); experiment: GST pull-down of in vitro translated 35S labeled protein
Flag tag-Bcl-xL = biological target: T1, Flag tag-Bcl-xL (UniProt Q07817 1-233); experiment: co-immunoprecipitation from transfected COS cells (summarised in FIG. 6)
T1 construct: Expressed in transfected COS cells; also called Flag-Bcl-xL
T1 sequence (Q07817 whole entry): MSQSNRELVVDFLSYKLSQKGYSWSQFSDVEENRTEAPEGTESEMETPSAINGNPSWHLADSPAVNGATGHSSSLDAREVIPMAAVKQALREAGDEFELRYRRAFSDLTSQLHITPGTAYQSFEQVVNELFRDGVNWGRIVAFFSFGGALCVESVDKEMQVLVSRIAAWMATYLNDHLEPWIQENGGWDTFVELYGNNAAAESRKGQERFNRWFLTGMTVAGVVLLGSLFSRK

Sequence of GST alone (purified, bacterially expressed) (P08515 whole entry, the tested form may be a part): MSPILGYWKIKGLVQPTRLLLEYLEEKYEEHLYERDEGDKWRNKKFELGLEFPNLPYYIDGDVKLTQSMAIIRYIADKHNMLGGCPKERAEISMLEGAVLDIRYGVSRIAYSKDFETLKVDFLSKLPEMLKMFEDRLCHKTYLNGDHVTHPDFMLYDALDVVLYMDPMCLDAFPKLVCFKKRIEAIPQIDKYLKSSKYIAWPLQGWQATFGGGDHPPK
Sequence of GST-PEM bacterially-expressed fusion protein (Bak residues 58-103 fused to GST) (P08515 1-218, tags or fused parts left off): as the sequence (P08515 whole entry, the tested form may be a part) above

B1: Bak, in vitro translated, 35S-methionine labeled (other, UniProt Q16611 1-211, looked up)
chain: MASGQGPGPPRQECGEPALPSASEEQVAQDTEEVFRSYVFYRHQQEQEAEGVAAPADPEMVTLPLQPSSTMGQVGRQLAIIGDDINRRYDSEFQTMLQHLQPTAENAYEYFTKIATSLFESGINWGRVVALLGFGYRLALHVYQHGLTGFLGQVTRFVVDFMLHHCIARWIAQRGGWVAALNLGNGPILNVLVVLGVVLLGQFVVRRFFKS
modifications: 35S-methionine label
notes: also called 35S labeled in vitro translated Bak; 35Met-labeled Bak
binding result [1]: no binding

B2: Bip1a (other, UniProt Q13323 1-160, looked up)
chain: MSEVRPLSRDILMETLLYEQLLEPPTMEVLGMTDSEEDLDPMEDFDSLECMEGSDALALRLACIGDEMDVSLRAPRLAQLSEVAMHSLGLAFIYDQTEDIRDVLRSFMDGFTTLKENIMRFWRSPNPGSWVSCEQVLLALLLLLALLLPLLSGGLHLLLK
notes: Used in vitro translated and 35S labeled, and expressed in transfected COS cells; also called in vitro translated, 35S labeled Bip1a
binding result [2]: no binding

B3: Bax ΔGD mutant (other, UniProt Q07812 1-192, looked up)
chain: MDGSGEQPRGGGPTSSEQIMKTGALLLQGFIQDRAGRMGGEAPELALDPVPQDASTKKMELQRMIAAVDTDSPREVFFRVAADMFSDGNFNWGRVVALFYFASKLVLKALCTKVPELIRTIMGWTLDFLRERLLGWIQDQGGWDGLLSYFGTPTWQTVTIFVAGVLTASLTIWKKMG
binding result (Flag tag-Bcl-xL): no binding

B4: Bip1a ΔGD mutant (other, UniProt Q13323 1-160, looked up)
chain: MSEVRPLSRDILMETLLYEQLLEPPTMEVLGMTDSEEDLDPMEDFDSLECMEGSDALRAPRLAQLSEVAMHSLGLAFIYDQTEDIRDVLRSFMDGFTTLKENIMRFWRSPNPGSWVSCEQVLLALLLLLALLLPLLSGGLHLLLK
binding result (Flag tag-Bcl-xL): no binding
